In patent US20250129168A1:

Key:
[1] = molecular target: human Dectin-1 isoform B (human) (UniProt Q9BXN2); experiment: flow cytometry on HEK-Blue hDectin-1b cells
[2] = molecular target: human Dectin-1 (isoform not given) (human) (UniProt Q9BXN2); experiment: flow cytometry on human monocytes
[3] = molecular target: human Dectin-1 isoform A (human) (UniProt Q9BXN2); experiment: flow cytometry on HEK293F hDectin-1a FL cells
[4] = molecular target: human Dectin-1 isoform A (human) (UniProt Q9BXN2); experiment: flow cytometry on HEK-Blue hDectin-1a cells
[5] = molecular target: Fc gamma receptor CD16a F variant (human) (UniProt P08637); experiment: ELISA, plate coated with recombinant huCD16a (F variant), detection with peroxidase anti-human IgG F(ab')2, OD 450 nm - 630 nm
[6] = molecular target: cynomolgus monkey Dectin-1 (cynomolgus monkey); experiment: flow cytometry, cynomolgus monkey monocytes
[7] = molecular target: cynomolgus monkey Dectin-1 (cynomolgus monkey); experiment: flow cytometry on cynomolgus monkey monocytes

Sequence of human Dectin-1 isoform A (human) (Q9BXN2 whole entry, canonical isoform): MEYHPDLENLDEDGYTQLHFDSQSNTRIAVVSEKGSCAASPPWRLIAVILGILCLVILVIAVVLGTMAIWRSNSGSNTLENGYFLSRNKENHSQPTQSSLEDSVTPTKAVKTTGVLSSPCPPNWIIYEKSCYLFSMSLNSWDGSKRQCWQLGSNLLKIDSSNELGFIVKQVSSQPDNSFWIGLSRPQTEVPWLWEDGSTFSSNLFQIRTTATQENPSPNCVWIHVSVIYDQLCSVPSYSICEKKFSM
Sequence of human Dectin-1 isoform B (human) (Q9BXN2 other isoform, or with tags, fused parts or gaps): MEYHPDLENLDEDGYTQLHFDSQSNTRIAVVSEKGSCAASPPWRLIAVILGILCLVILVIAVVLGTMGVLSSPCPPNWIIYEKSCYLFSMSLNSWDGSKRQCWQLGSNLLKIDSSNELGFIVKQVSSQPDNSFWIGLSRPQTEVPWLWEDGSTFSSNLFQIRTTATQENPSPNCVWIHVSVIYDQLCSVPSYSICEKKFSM
Sequence of cynomolgus monkey Dectin-1 (cynomolgus monkey) (chain, as listed by the source): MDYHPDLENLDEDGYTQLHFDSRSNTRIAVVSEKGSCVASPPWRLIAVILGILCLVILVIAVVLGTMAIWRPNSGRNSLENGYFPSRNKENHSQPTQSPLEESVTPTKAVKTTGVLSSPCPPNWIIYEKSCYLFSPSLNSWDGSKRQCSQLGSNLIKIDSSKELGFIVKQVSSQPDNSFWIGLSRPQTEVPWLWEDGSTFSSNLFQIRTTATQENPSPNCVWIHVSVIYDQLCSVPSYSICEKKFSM
Sequence of human Dectin-1 (isoform not given) (human) (Q9BXN2 whole entry, canonical isoform): as the sequence (Q9BXN2 whole entry, canonical isoform) above
Sequence of Fc gamma receptor CD16a F variant (human) (P08637 17-208 limits assumed, change not shown): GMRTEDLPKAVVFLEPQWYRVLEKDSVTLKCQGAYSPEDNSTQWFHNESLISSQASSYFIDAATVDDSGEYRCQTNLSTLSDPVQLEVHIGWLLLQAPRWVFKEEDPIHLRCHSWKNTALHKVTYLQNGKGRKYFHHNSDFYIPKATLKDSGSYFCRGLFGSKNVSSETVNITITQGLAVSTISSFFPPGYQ

EC50 [1]	EC50 [2]	EC50 [3]	EC50 [4]	EC50 (read off the curve) [5]	EC50 [6]	EC50 [7]	Substance
12 nM	1.4 nM	2.4 nM	1.9 nM				commercial anti-Dectin-1 antibody GE2
				0.07 µg/mL			Control (antibody)
0.9 nM	0.3 nM	1.2 nM	0.8 nM		16 nM	16.5 nM	commercial anti-Dectin-1 antibody 259931
